Reference: paper PMC2791212, “N-Terminal Deletion of Peptide:N-Glycanase Results in Enhanced Deglycosylation Activity” (PLoS ONE, 2009)

Key:
[1] = molecular target: T1, Peptide:N-glycanase from yeast (Png1p), full length (S. cerevisiae, UniProt Q02890 1-363); assay: SPR; RNase B (40 µg/ml, 10 mM sodium acetate pH 5.31) amine-coupled to a CT405 chip; Png1p or Png1p-ΔH1 as analytes (80-1000 nM), 25°C, 10 mM HEPES pH 7.4, 5 µl/min; 1:1 Langmuir model, global fit; KD = koff/kon; settings: both partners purified
T1 construct: Png1p (peptide:N-glycanase), S. cerevisiae W303-1a, gene amplified from genomic DNA, amino acids 1-363, cloned into EcoRI and HindIII sites of pET-22b(+); Plasmid pET-22b/png1p; eluted as 'Protein-His6'; The vector may add further residues at the N-terminus (cloning at EcoRI of pET-22b); also called PNGase; wild type Png1p; source: E. coli BL21 (DE3) pLysS, purified (Ni2+-NTA)
T1 sequence (looked up): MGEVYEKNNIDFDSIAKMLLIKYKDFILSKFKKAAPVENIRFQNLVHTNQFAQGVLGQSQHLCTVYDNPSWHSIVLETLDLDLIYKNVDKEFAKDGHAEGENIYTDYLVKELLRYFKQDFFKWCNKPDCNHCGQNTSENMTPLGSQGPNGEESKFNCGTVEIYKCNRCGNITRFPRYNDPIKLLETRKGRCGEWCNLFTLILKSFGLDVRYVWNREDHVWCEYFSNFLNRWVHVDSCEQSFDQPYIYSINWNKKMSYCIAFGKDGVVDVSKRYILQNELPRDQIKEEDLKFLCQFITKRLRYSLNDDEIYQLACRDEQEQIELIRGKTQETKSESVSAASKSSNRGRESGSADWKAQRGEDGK

[2] = molecular target: T2, Png1p-ΔH1 (33-363 aa), N-terminal H1 helix deletion mutant of S. cerevisiae Png1p (S. cerevisiae, UniProt Q02890 33-363); assay: as above; settings: both partners purified
T2 construct: Png1p (peptide:N-glycanase), S. cerevisiae W303-1a, amino acids 33-363 (lacks the N-terminal H1 helix), cloned into EcoRI and HindIII sites of pET-22b(+); Plasmid pET-22b/png1p-ΔH1; eluted as 'Protein-His6'; also called N-terminal H1 deletion mutant; source: E. coli BL21 (DE3) pLysS, purified (Ni2+-NTA)
T2 sequence (looked up): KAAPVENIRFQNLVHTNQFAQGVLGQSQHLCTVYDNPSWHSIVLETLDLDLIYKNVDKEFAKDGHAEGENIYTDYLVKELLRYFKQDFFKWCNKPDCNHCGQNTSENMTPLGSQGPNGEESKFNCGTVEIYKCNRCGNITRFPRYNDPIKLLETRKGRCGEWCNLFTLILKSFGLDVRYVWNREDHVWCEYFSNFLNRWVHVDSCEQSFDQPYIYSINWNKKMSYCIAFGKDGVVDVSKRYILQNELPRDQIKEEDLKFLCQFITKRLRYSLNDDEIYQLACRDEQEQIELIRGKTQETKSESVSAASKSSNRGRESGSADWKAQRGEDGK

Kd [1]: 7.7 µM
koff [1]: 0.094 s⁻¹
kon [1]: 12200 M⁻¹ s⁻¹
Kd [2]: 2.9 µM
koff [2]: 0.05 s⁻¹
kon [2]: 17000 M⁻¹ s⁻¹
B1: Ribonuclease B (RNase B), denatured (natural protein, UniProt P61823 27-150, looked up)
chain: KETAAAKFERQHMDSSTSAASSSNYCNQMMKSRNLTKDRCKPVNTFVHESLADVQAVCSQKNVACKNGQTNCYQSYSTMSITDCRETGSSKYPNCAYKTTQANKHIIVACEGNPYVPVHFDASV
modifications: N-linked glycan (glycoprotein; position not stated)
notes: Ribonuclease B, the glycosylated form of pancreatic ribonuclease; Denatured by heating at 100°C for 10 min and rapid freezing (deglycosylation methods); also called denatured RNase B
